The nature of this data set: yeast display, Sf9 membrane polyspecificity reagent, FACS + sequencing; frameworks hold sequencing errors. The gist of the method: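 Polyreactivity labels are assigned by the sorting gate from which each nanobody was recovered. The gates were low and high (top ~1%), set on anti-HA fluorescence for expression and streptavidin fluorescence for reagent binding. Before sorting, galactose-induced (36–48 hours) yeast display cells were stained for 1 hour at 4 °C with 10% biotinylated, detergent-solubilized Sf9 membrane reagent.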
On to “QVQLVESGGGLVQAGGSLRLSCAASGFIYRVYAIGWYRQAPGKERELVAAITGNGVSTYYADSVKVRFTISRDNAKNTVYLQMNSLKPEDTAVYYCATYGRRWYSSRRLDYWGQGTQVTVSS”, for which the “polyreactivity (PSR sort gate)” value is reported as “low polyreactivity”.

Consider “QVQLVESGGGLVQAGGSLRLSCAASGFIYSTYAMGWYRQAPGKERELVAAISWSGGRTNYADSVKGRFTISRDNAKNTVYLQMNSLKPEDTAVYYCAVGGERGARIGSNHRGSRYDYWGQGTQVTVSS”, for which the “polyreactivity (PSR sort gate)” value is on record as “high polyreactivity”.

Regarding “QVQLVESGGGLVQAGGSLRLSCAASGFIYSYAMGWYRQAPGKERELVAAISRSGGSTYYADSVKGRFTISRDNAKNTVYLQKNSLKPEDTAVYYCAALRRYPRDNIMYYYPYDYWGQGTQVTVSS”, the “polyreactivity (PSR sort gate)” value is given as “high polyreactivity”.

In the case of “QVQLVESGGGLVQAGGSLRLSCAASGFKYAMGWYRQATGKERELVAAISSGGITSYADSVKGRFTISRDNAKNTVYLQMNSLKPEDTAVYYCNARLRHSQYAYYYWGQGTQVTVSS”, the “polyreactivity (PSR sort gate)” value is listed as “high polyreactivity”.

As to “QVQLVESGGGLVQAGGSLRLSCAASGFMFTRYAMGSYRQAPGKERELVAAISWIGTSTYYADSVKGRCTISRDNAKNTVFLQMNSLTPEDTAVYYCNALLYSTGRPGFYLGYDYWGQGTQVTVSS”, the “polyreactivity (PSR sort gate)” value was “high polyreactivity”.

With “QVQLVESGGGLVQAGGSLRLSCAASGFNFAFYDMGWYRQAPGKERELVAAISWGGSTYYADSVKGRFTISRDNAKNTVYLQMNRLKPEDTAVYYCAARLSRSYRYGYWGQGTQVTVSS”, the “polyreactivity (PSR sort gate)” value was “high polyreactivity”.

Consider “QVQLVESGGGLVQAGGSLRLSCAASGFNFGSNAMGWYRQAPGKERELVAAITYSGASTYYADSVKGRFTISRDNAKNTVYLQMNSLKPEDTAVYSCAADLTSYYGGDYWGQGTQVTVSS”, for which the “polyreactivity (PSR sort gate)” value was “low polyreactivity”.

Turning to “QVQLVESGGGLVQAGGSLRLSCAASGFNFPYYAMGWYRQAPGKERALVAAIRISGGSTYYADSVKGRFTISRDNAKNTVYLQMNSLKPEDTAVYYCAADYRYRSRFYYWGQGTQVTVSS”, the “polyreactivity (PSR sort gate)” value is “low polyreactivity”.

Turning to “QVQLVESGGGLVQAGGSLRLSCAASGFNFRGNAMGWYRQAPGKERELVARISGSGDSTYYADSVKGRFTISRDNAKNTVYLQMNSLKPEDTAVYYCNADVFPAVEAYDSSIEYYSWGQGTQVTVSS”, the “polyreactivity (PSR sort gate)” value is reported as “low polyreactivity”.

For the sequence “QVQLVESGGGLVQAGGSLRLSCAASGFNFRRNAMGWYRQAPGKERELVAVITSSARTNYADSVKGRFTISRDNAKNTVYLQMNSLNPEDTAVYSCNAYRYRQSSSDKYGYWGQGTQVTVSS”, the “polyreactivity (PSR sort gate)” value is reported as “high polyreactivity”.

Take “QVQLVESGGGLVQAGGSLRLSCAASGFNFRYYAMGWYRQAPGKERELVAAISASSGRTYYADSVKGRFTISRDNAKNTVYLQMNSLKPEDTAVYYCAAEYIRNGDYGLDYWGQGTQVTVSS”: the “polyreactivity (PSR sort gate)” value is recorded as “high polyreactivity”.

For “QVQLVESGGGLVQAGGSLRLSCAASGFNFRYYAMGWYRQAPGKERELVAAISWSGGTTYYADSVKGRFTISRDNAKNTVYLQMNSLKPEDTAVYYCAARVARFSVPYDYWGQGTQVTVSS”, the “polyreactivity (PSR sort gate)” value is on record as “low polyreactivity”.

Consider “QVQLVESGGGLVQAGGSLRLSCAASGFNFSLNAMGWYRQAPGKERELVAAISRSGGRTYYADSVKGRFTISRDNAKNTVYLQMNSLKPEDTAVYYCAAVPITWYAYDYWGQGTQVTVSS”, for which the “polyreactivity (PSR sort gate)” value was “high polyreactivity”.

Consider “QVQLVESGGGLVQAGGSLRLSCAASGFNFSQYAMGWYRQAPGKERELVAAISSGSTYADSVKGRFTISRDNAKNSVYLQMNSLKREDTAVYYCANDPFSRGSRRYDYWGQGTQVTVSS”, for which the “polyreactivity (PSR sort gate)” value was “low polyreactivity”.

For the sequence “QVQLVESGGGLVQAGGSLRLSCAASGFNFTLNTMGWYRQAPGKERELVAAINSGDSTYADSVKGRFTISRDNAKNTVYLQMNSLKPEDTAVYYCNADPDWWYPFNYWGQGTQVTVSS”, the “polyreactivity (PSR sort gate)” value is on record as “low polyreactivity”.

Regarding “QVQLVESGGGLVQAGGSLRLSCAASGFNFYDYTMGWYRQAPGKERELVAAISWSGGSTYHADSVKGRFTISRDTAKNTVYLQMNSLKPEDTAVYYCNADYGYYKSGYGFDYWGQGTKVTVSS”, the “polyreactivity (PSR sort gate)” value is “low polyreactivity”.

“QVQLVESGGGLVQAGGSLRLSCAASGFNFYGYVMGWYRQAPGKERELVAVISRSGDRTSYADSVKGRFTISRDTAKNTVYLQMNSLKPEDTAVYYCAAESGWGAAGEELDYWGQGTQVTVSS”: the “polyreactivity (PSR sort gate)” value is listed as “high polyreactivity”.

For the sequence “QVQLVESGGGLVQAGGSLRLSCAASGFNFYRNTMGWYSQAPGKEREFVAAIRWRGGSTYYADSVKGRFTISRDNAKNTVYLQMNSLKPEDTAVYYCAADTRPGYSGFEYWGQGTQVTVSS”, the “polyreactivity (PSR sort gate)” value is recorded as “high polyreactivity”.

Regarding “QVQLVESGGGLVQAGGSLRLSCAASGFNFYRYTLGWYRQAPGKERELVASITRRCGSTYYADSVKGRFTISRDNAKHTVYLQMNILKQEDTAEYYCNDATPVWQSGTYDYWGQGTQVTVSS”, the “polyreactivity (PSR sort gate)” value is listed as “high polyreactivity”.

Turning to “QVQLVESGGGLVQAGGSLRLSCAASGFNFYTNVMGWYRPAPGKERELVAAINSGGSTNYADSVKGRFTISRDNAKNTVYLQMNSLKPEDTAVYYCAARVARISVPYDYWGQGTQVTVSS”, the “polyreactivity (PSR sort gate)” value is “low polyreactivity”.

Turning to “QVQLVESGGGLVQAGGSLRLSCAASGFNYGIYAMGWYRQAPGKERELVAAISRGGGSTYYADSVKGRFTISRDNAKNTVYLQMNSLKPEDTAVYYCAARYQSPYDYWGQGTQVTVSS”, the “polyreactivity (PSR sort gate)” value is given as “high polyreactivity”.

As to “QVQLVESGGGLVQAGGSLRLSCAASGFNYYRYVMVWYRQAPGKERELVAAITTSGGSTYYADSVKGRFTISRDNAKNTVYLQMNSLKPEDTAVYYCAAVYIPSRQWYDYWGQGTQVTVSS”, the “polyreactivity (PSR sort gate)” value is reported as “high polyreactivity”.

As for “QVQLVESGGGLVQAGGSLRLSCAASGFSFATYAMGWYRQAPGKERELVAAISSTGGRTYYAVSVKGRFTISRDNAKNNVYLQMNSLKPEDTAVYYCAADWRVTYDYWGQGTQVTVSS”, the “polyreactivity (PSR sort gate)” value is “high polyreactivity”.

Regarding “QVQLVESGGGLVQAGGSLRLSCAASGFSFGIYAMGWYRQAPGKERELYADSVKGRFTISRDNAKNTVYLQMNSLKPEDTAVYYCAADYWYGAGLPHGTEFDYWGQGTQVTVSS”, the “polyreactivity (PSR sort gate)” value is reported as “low polyreactivity”.

Regarding “QVQLVESGGGLVQAGGSLRLSCAASGFSFRGYAMGWYRQAPGKERELVAAINYSGGSTYYADSVKGRFTISRDNAKNTVYLQMNSLKPEDTAVYYCAAGKRGDDDYWGQGTQVTVSS”, the “polyreactivity (PSR sort gate)” value is reported as “high polyreactivity”.

As for “QVQLVESGGGLVQAGGSLRLSCAASGFTFAAYAMGWYRPAPGKERELVAAITSRDGTTYYADSVKGRFTISRNNAKNTVYLQMNSLKPEDTAVYYGAKDHFTWGVSEDDYWRQGTQVTVSS”, the “polyreactivity (PSR sort gate)” value is listed as “low polyreactivity”.

Consider “QVQLVESGGGLVQAGGSLRLSCAASGFTFAHNAMGWYRQAPGKERELVAAITSRGGSTYYADSVKGRFTISRDNAKNTVYLQMNSLKPEDTAVYYCAARGVNRQVFNYWGQGTQVTVSS”, for which the “polyreactivity (PSR sort gate)” value is given as “high polyreactivity”.

As to “QVQLVESGGGLVQAGGSLRLSCAASGFTFAKNAMGWYRQAPGKERELVATISRSGGSTYYADSVKGRFTLSRDNAKNTVYLQMNSLKREVNAVYYCNKKYNYLYDYWGQGTQVTVSS”, the “polyreactivity (PSR sort gate)” value is “high polyreactivity”.

In the case of “QVQLVESGGGLVQAGGSLRLSCAASGFTFAKYAMGWSRQAPGKERELVAAIRSRGDTTYYADSVKGRFTISRDNAKNTVYFQMNSLKPEDTAVYYCAARSYFLVDCSRYDYWGQGSQVTVSS”, the “polyreactivity (PSR sort gate)” value is on record as “high polyreactivity”.

For “QVQLVESGGGLVQAGGSLRLSCAASGFTFAKYAMGWYRQAPGKERELVAAISSNGGTTYYADSVKGRFTISRDNAKNTVYLQMNSLKPEDTAVYYCAVRSRVYPSRVKYDYWGQGTQVTVSS”, the “polyreactivity (PSR sort gate)” value was “high polyreactivity”.

For the origin of these results see the nanobody polyreactivity screen of Harvey et al. (2022).
